# Results from paper PMC9790621.
# Experiments:
# purified protein [1] = substrate: Nc1nc2c(ncn2[C@@H]2O[C@H](COP(=O)(O)O)[C@@H](O)[C@H]2O)c(=O)[nH]1; test: purified protein; conditions: pH 7.8; 25.0 °C
# purified protein [2] = substrate: NC(=O)C1=CN([C@@H]2O[C@H](COP(=O)(O)OP(=O)(O)OC[C@H]3O[C@@H](n4cnc5c(N)ncnc54)[C@H](OP(=O)(O)O)[C@@H]3O)[C@@H](O)[C@H]2O)C=CC1; test: purified protein; conditions: pH 7.8; 25.0 °C
protein,measurement,setting,value
Mtb GMPR (Mtb GuaB1) (Mycobacterium tuberculosis H37Rv) (protein) MRFLDGHPPGYDLTYNDVFIVPNRSEVASRFDVDLSTADGSGTTIPVVVANMTAVAGRRMAETVARRGGIVILPQDLPIPAVKQTVAFVKSRDLVLDTPVTLAPDDSVSDAMALIHKRAHGVAVVILEGRPIGLVRESSCLGVDRFTRVRDIAVTDYVTAPAGTEPRKIFDLLEHAPVDVAVLTDADGTLAGVLSRTGAIRAGIYTPATDSAGRLRIGAAVGINGDVGAKARALAEAGVDVLVIDTAHGHQVKTLDAIKAVSALDLGLPLAAGNVVSAEGTRDLLKAGANVVKVGVGPGAMCTTRMMTGVGRPQFSAVLECASAARQLGGHIWADGGIRHPRDVALALAAGASNVMIGSWFAGTYESPGDLMRDRDDQPYKESYGMASKRAVVARTGADNPFDRARKALFEEGISTSRMGLDPDRGGVEDLIDHITSGVRSTCTYVGASNLAELHERAVVGVQSGAGFAEGHPLPAGW,K0.5,purified protein [1],10.5 ± 1.17 µM
same,K0.5,purified protein [2],63 ± 7 µM
